Measured values as given in patent US20180245075, “INTEGRATED SYSTEM FOR PROGRAMMABLE DNA METHYLATION” (Trustees of Boston University, published 2018).

Key:
ZF10-1-Dam(WT) writer = ZF10-1-Dam(WT) writer (synthetic; Escherichia coli Dam, UniProt P0AEE8 SEQ:21-472); assay: cell_activity; with DpnI-VP64, episomal interspersed reporter; conditions: tags: NLS, ZF10-1 six-finger array fused to Dam
Description: Reporter plasmid was co-transfected with Writer and Reader-Effector constructs, and single-cell GFP levels were measured with flow cytometry two days post-transfection. […] Specific constructs corresponding to the data below were: Reporter: [8XZF_14XGATC_interspersed] minimal CMV promoter; Writer: minCMV-ZF10-1-Dam (WT); and Reader-Effector: UBC-NLS-DpnI DBD-VP64.
Flow cytometry measurements were performed using an Attune NxT Flow Cytometer (Thermo Fisher Scientific) equipped with a high-throughput auto-sampler. Typically, 50,000 or 70,000 events were acquired for transient transfection or stable cell line experiments, respectively. Cells were gated by forward (FSC) and side scatter (SSC) distributions, and either iRFP or mCherry expression for transfection- or integration-positive populations, respectively. For experiments with transient transfection of synI/synR modules (FIGS. 9A-9C), geometric means of the GFP fluorescence distributions were calculated using FLOWJO (Treestar Software). GFP fold change was then calculated by normalizing mean GFP intensity to reporter-only controls, unless otherwise noted. For spreading and memory experiments (with integrated constructs), the percentage of GFP activated cells was quantified using a GFP+gate that contains ˜0.5-1% of negative control cells (FIG. 17E). […]

[1] = target: ZF10-1-Dam(N132A) writer (synI) (synthetic; Escherichia coli Dam, UniProt P0AEE8 SEQ:21-472); assay: cell_activity; integrated Clustered Reporter, GATC 140 bp downstream, vs mCherry-Dam; ~6-fold on transient reporter (p253); conditions: tags: NLS, ZF10-1 six-finger array fused to Dam
Description: Fraction methylation was measured using m6A-qPCR at a single GATC site proximal to the ZF BS array in the singly integrated Clustered Reporter (6th site, 140 bp downstream from end of ZF array). (n=3; error bars, SD). […] (n=3; error bars, SD). […] Diagonal line represents no enrichment in ZF sequence-specific methylation over “background” methylation. Dam N132A and WT are marked in red and black, respectively. (n=3; error bars, SD). […] Cells were transfected with the indicated constructs: Interspersed Reporter only, ZF-VP64 constitutively expressed from pUBC, synI^NT (Dam WT) constitutively expressed from a strong promoter (pCLPIT with no Dox induction), synI^NT (Dam WT) constitutively expressed from a weak promoter (pMinCMV), and synI^NT (Dam N132A) constitutively expressed from a weak promoter (pMinCMV). Genomic DNA (gDNA) was isolated 2 days following transfection, digested with or without DpnII, run out on an agarose gel (top), and the bands used to quantify total fraction methylated DNA (bottom). Undigested bands appearing at the top of each lane in DpnII-treated samples represent methylated (protected) gDNA, while […] gDNA fragments that are digested by DpnII appear as a smear (from ˜0.3-2 kb). Total fraction methylated gDNA is calculated as undigested gDNA in DpnII-treated samples normalized by total gDNA. […]

B1: ZF10-1 binding sequence (BS), arrayed in reporter (dsDNA)
DNA 1: CGGCGTAGCCGATGTCGCGC
DNA 2: GCGCGACATCGGCTACGCCG
- activity (ZF10-1-Dam(WT) writer): > 100 fold GFP activation
- activity [1]: ~10 fold m6A enrichment
